In the RNAGym collection of RNA variant scans (doi:10.1093/nar/gkz1192):

B1: CPEB3 Ribozyme (parent)
chain: UAACAGGGGGCCACAGCAGAAGCGUUCACGUCGCAGCCCCUGUCAGAUUCUGGUGAAUCUGCGAAUUCUGCUGUAUAUCUC

Variants of: B1
Experiment: self-cleavage, relative activity (ratio to wild type); higher = more cleavage; in vitro, sequencing
Procedure, shortened: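 Relative activity compares each variant's cleaved/total read fraction with that of the unmutated ribozyme. To get these fractions, barcoded CPEB3 ribozyme libraries from rounds of error-prone PCR were transcribed with T7 RNA polymerase for 5 hours at 37°C and then given 15 min of DNase I treatment before EDTA was added. The RNAs were reverse transcribed with template switching and sequenced on Illumina, and DNA sequencing linked barcodes to variants. A minimum of 5 reads applied, and three batches were averaged.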
For C39A U72A, the self-cleavage was 0.35. For C39A U72C, the self-cleavage was 0.32. With C39A U67A the self-cleavage was 0.34. C39A U67C showed a self-cleavage of 0.16. Variant C37U C44U has a self-cleavage of 0.13. With C37U U41C the self-cleavage was 0.89. For C37U U41A, the self-cleavage was 0.18. In the case of C37U G73A, the self-cleavage is reported as 1.43. With C40A U76A the self-cleavage was 0.28. Variant C40A U76C has a self-cleavage of 0.38. In the case of C38G A75G, the self-cleavage is reported as 0.27. C38G U69A gave a self-cleavage of 0.19. Work on C40A A45G yielded a self-cleavage of 0.26. With C40A A45C the self-cleavage was 0.23. For C40A A45U, the self-cleavage was 0.31. For C39G U72C, the self-cleavage was 0.3. In the case of C38U G46A, the self-cleavage is reported as 0.24. Variant C37G U72A has a self-cleavage of 0.92. C37G U72C gave a self-cleavage of 1.14. In the case of C39U, the self-cleavage is reported as 0.91. C39G gave a self-cleavage of 0.3. Work on C39A yielded a self-cleavage of 0.31. With C37U U66A the self-cleavage was 0.25. For C38U U41C, the self-cleavage was 0.87. C38U U41A showed a self-cleavage of 0.42. Work on C38U U41G yielded a self-cleavage of 0.42. C40A C50A gave a self-cleavage of 0.27. C40A C50U gave a self-cleavage of 0.22. In the case of C37U A75G, the self-cleavage is reported as 0.59. In the case of C38A U49A, the self-cleavage is reported as 0.27. In the case of C38A U49C, the self-cleavage is reported as 0.16. C39U U66C gave a self-cleavage of 0.37. Variant C38U U60C has a self-cleavage of 0.33. Work on C38U U60G yielded a self-cleavage of 0.25. Variant C37G U80A has a self-cleavage of 1.18. Work on C37G U80C yielded a self-cleavage of 1. With C37G U80G the self-cleavage was 1.16. In the case of C39U C71U, the self-cleavage is reported as 0.57. C39A U49A showed a self-cleavage of 0.23. Variant C37U A56U has a self-cleavage of 0.47. C37U A56G showed a self-cleavage of 0.45. In the case of C38A A45U, the self-cleavage is reported as 0.33. Variant C39G A65G has a self-cleavage of 0.17. C38G C59U showed a self-cleavage of 0.22. Work on C39G A64C yielded a self-cleavage of 0.17. With C39G A64U the self-cleavage was 0.35. C39G A64G showed a self-cleavage of 0.38. Work on C39U U41A yielded a self-cleavage of 0.25. C37U A77U gave a self-cleavage of 0.91. For C37U A77G, the self-cleavage was 0.78. With C40A G63A the self-cleavage was 0.12. C37U A47G showed a self-cleavage of 0.58. In the case of C37U A47U, the self-cleavage is reported as 0.39. In the case of C40A U49A, the self-cleavage is reported as 0.18. C38G U49A showed a self-cleavage of 0.26. For C38U U69G, the self-cleavage was 0.42. C38U U69C showed a self-cleavage of 0.38. In the case of C38U U69A, the self-cleavage is reported as 0.53. C37U G70A showed a self-cleavage of 0.32. With C40A the self-cleavage was 0.28. Variant C40G has a self-cleavage of 0.29. Variant C39U A75G has a self-cleavage of 0.97. Variant C38U U54C has a self-cleavage of 0.68. For C38U U54A, the self-cleavage was 0.85. C39G U41A showed a self-cleavage of 0.21. With C39G U41G the self-cleavage was 0.13. Work on C38G U43A yielded a self-cleavage of 0.14. C38G U43C showed a self-cleavage of 0.34. In the case of C37U A65G, the self-cleavage is reported as 0.28. Work on C37U A65U yielded a self-cleavage of 0.16. Variant C40A U80A has a self-cleavage of 0.26. Variant C40A U80C has a self-cleavage of 0.24. For C40A U60C, the self-cleavage was 0.2. For C40A U60G, the self-cleavage was 0.2. With C39A U43C the self-cleavage was 0.4. C39A U43A gave a self-cleavage of 0.38. In the case of C39U U58C, the self-cleavage is reported as 0.3. C39U U72A showed a self-cleavage of 0.98. Variant C39U U72C has a self-cleavage of 0.71. In the case of C39U U72G, the self-cleavage is reported as 1.06. C40A A64G gave a self-cleavage of 0.12. For C39A A47G, the self-cleavage was 0.35. In the case of C39A A47C, the self-cleavage is reported as 0.2. With C39U U67C the self-cleavage was 0.21. Work on C39A A65G yielded a self-cleavage of 0.11. With C39U U54A the self-cleavage was 0.95. Variant C40A A56U has a self-cleavage of 0.2. With C40A A56G the self-cleavage was 0.23. Variant C39U A47G has a self-cleavage of 0.48. In the case of C39U A47U, the self-cleavage is reported as 0.42. C39A U51C showed a self-cleavage of 0.34. C38U G55U showed a self-cleavage of 0.8. With C38U G55A the self-cleavage was 0.4. Variant C38A U51C has a self-cleavage of 0.18. C38A U51A gave a self-cleavage of 0.17. C39A A56G gave a self-cleavage of 0.26. C39A A56U gave a self-cleavage of 0.09. Work on C38A A75U yielded a self-cleavage of 0.39. With C37U C59A the self-cleavage was 0.22. With C39A U48C the self-cleavage was 0.12. Variant C39A U48A has a self-cleavage of 0.21. In the case of C37U U78G, the self-cleavage is reported as 1. Work on C37U U78C yielded a self-cleavage of 0.56. C40G U48A gave a self-cleavage of 0.67. In the case of C40G U48C, the self-cleavage is reported as 0.13. For C39U C62A, the self-cleavage was 0.35. C40A U72G showed a self-cleavage of 0.41. For C40A U72C, the self-cleavage was 0.37. In the case of C40G U41G, the self-cleavage is reported as 0.6. In the case of C40G U41C, the self-cleavage is reported as 0.32. With C40G U41A the self-cleavage was 0.26. C38A A57G gave a self-cleavage of 0.19. For C38U U58C, the self-cleavage was 0.19. Variant C38U U58G has a self-cleavage of 0.08. C39U A56U showed a self-cleavage of 0.32. C39U A56G showed a self-cleavage of 0.48. Work on C38U U48C yielded a self-cleavage of 0.35. Variant C38A U58C has a self-cleavage of 0.24. Variant C37U U69C has a self-cleavage of 0.42. C37U U69A gave a self-cleavage of 0.2. With C39A U66C the self-cleavage was 0.39. C39A U60A showed a self-cleavage of 0.18. For C39A U60G, the self-cleavage was 0.09. Work on C39A U60C yielded a self-cleavage of 0.13. Variant C38U A77G has a self-cleavage of 0.74. With C39U A77U the self-cleavage was 0.81. For C39U A77G, the self-cleavage was 0.83. In the case of C40A G42U, the self-cleavage is reported as 0.31. For C39A U74C, the self-cleavage was 0.49. C39A U74A showed a self-cleavage of 0.53. In the case of C37U U48C, the self-cleavage is reported as 0.36. C39A C71U showed a self-cleavage of 0.11. Work on C39U U69C yielded a self-cleavage of 0.32. C39U U69A showed a self-cleavage of 0.44. For C37U G63U, the self-cleavage was 0.84. For C37U G63A, the self-cleavage was 0.54. For C39A U41A, the self-cleavage was 0.27. C39A U41C gave a self-cleavage of 0.35. With C39G A57G the self-cleavage was 0.19. C40A A47C gave a self-cleavage of 0.17. With C40A A47G the self-cleavage was 0.21. Work on C37U C50A yielded a self-cleavage of 0.47. With C39U U76C the self-cleavage was 1.08. Variant C40A U51A has a self-cleavage of 0.33. With C40A U51G the self-cleavage was 0.25. In the case of C38A U66A, the self-cleavage is reported as 0.12. C38A U66C gave a self-cleavage of 0.15. C38A A65U gave a self-cleavage of 0.28. In the case of C37U U76C, the self-cleavage is reported as 0.57. Variant C37U U76A has a self-cleavage of 0.55. Variant C38U A64C has a self-cleavage of 0.82. C38U A64U gave a self-cleavage of 0.37. With C38U A64G the self-cleavage was 0.37. For C39G G70A, the self-cleavage was 0.15. C38U C39U gave a self-cleavage of 0.26. C38A G73C showed a self-cleavage of 0.45. Variant C38A G73U has a self-cleavage of 0.91. For C39G C62U, the self-cleavage was 0.08. For C40G A65G, the self-cleavage was 0.35. In the case of C37U U60A, the self-cleavage is reported as 0.24. C37U U60C showed a self-cleavage of 0.35. With C39U A65G the self-cleavage was 0.32. Variant C40A A57G has a self-cleavage of 0.22. With C39A C81G the self-cleavage was 0.16. C38G U67C showed a self-cleavage of 0.11. With C38A U78C the self-cleavage was 0.33. C40A U48C gave a self-cleavage of 0.18.
